Assay results taken from CN114349855A (BAISIS MEDICAL DIAGNOSIS SCIENCE AND TECH BEIJING LIMITED …, dated 2022).

What was measured:
Test in all cases: ELISA, S protein coated at 2 μg/mL
新型冠状病毒Alpha Spike蛋白 = target: T1, 新型冠状病毒Alpha Spike蛋白 (新型冠状病毒 (SARS-CoV-2) Alpha突变株, UniProt P0DTC2 16-1213)
T1 construct: also called Alpha的S蛋白

新型冠状病毒Beta Spike蛋白 = target: T2, 新型冠状病毒Beta Spike蛋白 (新型冠状病毒 (SARS-CoV-2) Beta突变株, UniProt P0DTC2 16-1213)
T2 construct: also called Beta的S蛋白

新型冠状病毒Gamma Spike蛋白 = target: T3, 新型冠状病毒Gamma Spike蛋白 (新型冠状病毒 (SARS-CoV-2) Gamma突变株, UniProt P0DTC2 16-1213)
T3 construct: also called Gamma的S蛋白

Measured: binding result

B1: 抗体 克隆号9A5D9 22G3 (antibody, V domains shown)
VH: EVQLVESGGGLVKPGGSLRLSCAASGFTFSSYSMNWVRQAPGKGLEWVSSISRSSSYIYYADSVMGRFTISRDNAKNSLYLQMNSLRADDTAVYYCARDRGSGNYYVDGLDIWGQGTMVTVSS
VL: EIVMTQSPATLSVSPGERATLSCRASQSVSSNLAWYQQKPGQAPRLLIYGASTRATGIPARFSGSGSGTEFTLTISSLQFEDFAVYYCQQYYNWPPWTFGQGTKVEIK
no binding (tested: 1 μg/mL): all assays above

B2: 抗体 克隆号9A5F6 23F1 (antibody, V domains shown)
VH: QVQLVESGGGVVQPGRSLRLSCAASGFTFSSYAMYWVRQAPGKGLECVAGISYDGSNKYYADSVKGRFTISRENSKNTLYLQMNSLISEDTAVYYCARAEWDYWGQGTLVTVSS
VL: SYELTQPSSVSVSPGQTARITCSGDVLAKKYARWFQQKPGQAPVLVIYKDSERPSGIPERFSGSSSGTTVTLTISGAQVEDEADYYCYSAADNNLGVFGGGTKL
no binding (tested: 1 μg/mL): all assays above

B3: 抗体 克隆号7D7G3D4 (antibody, V domains shown)
VH: EVQLVESGGGLVQPGGSLRLSCAASGLTVSSNHMSWVRQAPGKGLEWVSIIYSGGSTYYADSVKGRFTISRDNSKNTLYLQMDSLRAEDTTVYYCARAQGGWELPGAGYYYFNGMDFWGQGTTVTVSS
VL: DIQMTQSPSSLSASVGDRVTITCRASQSISTYLNWYQQKPGKAPKLLIYAASNLQSGVPSRFSGSASGTDFTLTISSLQPEDFATYFCQQSYSTSFTFGPGTKVDIK
no binding (tested: 1 μg/mL): all assays above
